In PMC9482650, “Quantitative fragmentomics allow affinity mapping of interactomes” (Nature Communications, 2022):

T1: GRIP1_4, Q9Y3R0
T1 sequence (Q9Y3R0 467-571, limits assumed, looked up): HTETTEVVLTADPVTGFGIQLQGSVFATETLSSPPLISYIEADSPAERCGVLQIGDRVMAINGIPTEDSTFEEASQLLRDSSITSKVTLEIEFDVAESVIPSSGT

T2: MPDZ_12, O75970
T2 sequence (O75970 1857-1958, limits assumed, looked up): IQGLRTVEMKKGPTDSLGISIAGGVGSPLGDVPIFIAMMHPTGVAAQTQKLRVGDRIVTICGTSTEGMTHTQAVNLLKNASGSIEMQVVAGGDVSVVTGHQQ

T3: DLG3_2, Q92796
T3 sequence (Q92796 221-321, limits assumed, looked up): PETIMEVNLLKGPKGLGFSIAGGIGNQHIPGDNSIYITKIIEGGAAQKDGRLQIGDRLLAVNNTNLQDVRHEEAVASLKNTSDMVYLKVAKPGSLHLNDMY

T4: HTRA3, P83110
T4 sequence (P83110 354-453, limits assumed, looked up): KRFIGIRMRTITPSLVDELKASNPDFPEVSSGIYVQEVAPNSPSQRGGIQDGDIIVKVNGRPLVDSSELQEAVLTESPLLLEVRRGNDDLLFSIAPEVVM

T5: DFNB31_1, Q9P202
T5 sequence (Q9P202 135-233, limits assumed, looked up): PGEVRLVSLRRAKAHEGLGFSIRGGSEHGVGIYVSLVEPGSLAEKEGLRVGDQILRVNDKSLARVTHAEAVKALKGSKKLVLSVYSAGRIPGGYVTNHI

T6: RADIL, Q96JH8
T6 sequence (Q96JH8 971-1071, limits assumed, looked up): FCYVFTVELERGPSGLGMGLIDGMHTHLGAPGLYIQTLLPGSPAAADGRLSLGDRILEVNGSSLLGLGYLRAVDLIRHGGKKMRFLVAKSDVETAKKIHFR

T7: APBA3_1, O96018
T7 sequence (O96018 389-490, limits assumed, looked up): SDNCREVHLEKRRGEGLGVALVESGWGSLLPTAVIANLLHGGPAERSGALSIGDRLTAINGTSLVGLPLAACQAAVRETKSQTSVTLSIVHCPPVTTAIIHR

T8: MPP2, Q14168
T8 sequence (Q14168 180-250, limits assumed, looked up): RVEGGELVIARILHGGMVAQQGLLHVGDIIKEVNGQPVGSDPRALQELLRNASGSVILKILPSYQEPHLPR

T9: DFNB31_3, Q9P202
T9 sequence (Q9P202 811-907, limits assumed, looked up): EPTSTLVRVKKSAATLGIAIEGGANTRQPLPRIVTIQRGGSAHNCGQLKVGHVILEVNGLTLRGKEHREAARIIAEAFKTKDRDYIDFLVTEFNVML

T10: PDZRN3_1, Q9UPQ7
T10 sequence (Q9UPQ7 244-349, limits assumed, looked up): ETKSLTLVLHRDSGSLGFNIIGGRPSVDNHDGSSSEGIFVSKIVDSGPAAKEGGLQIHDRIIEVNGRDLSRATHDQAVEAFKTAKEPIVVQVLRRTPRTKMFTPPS

T11: TIAM2, Q8IVF5
T11 sequence (Q8IVF5 885-986, limits assumed, looked up): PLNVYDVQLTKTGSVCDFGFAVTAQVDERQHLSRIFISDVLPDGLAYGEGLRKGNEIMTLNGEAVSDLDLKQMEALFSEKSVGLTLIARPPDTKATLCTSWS


Legend:
Test in all cases: holdup assay
Parameters in all cases: key: below the threshold = too weak to quantify, mostly under pKd 3.1 to 4
Details in all cases: plain residues with an end cap or a label only (N-terminal biotin on a linker: ttds)
GRIP1_4, Q9Y3R0 = biological target: T1, GRIP1_4, Q9Y3R0
MPDZ_12, O75970 = biological target: T2, MPDZ_12, O75970
GRASP, Q7Z6J2 = biological target: GRASP, Q7Z6J2
Chain of GRASP, Q7Z6J2 (Q7Z6J2 96-193): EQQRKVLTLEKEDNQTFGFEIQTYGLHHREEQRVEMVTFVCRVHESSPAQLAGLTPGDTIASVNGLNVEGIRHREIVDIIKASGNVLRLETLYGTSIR

DLG3_2, Q92796 = biological target: T3, DLG3_2, Q92796
GORASP2, Q9H8Y8 = biological target: GORASP2, Q9H8Y8
GRIP2_4, Q9C0E4 = biological target: GRIP2_4, Q9C0E4
Chain of GRIP2_4, Q9C0E4 (Q9C0E4 446-548): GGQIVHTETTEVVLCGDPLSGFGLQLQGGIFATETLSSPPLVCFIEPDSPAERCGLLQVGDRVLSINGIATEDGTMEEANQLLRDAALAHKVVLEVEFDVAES

Inadl_9, Q8NI35 = biological target: Inadl_9, Q8NI35
Chain of Inadl_9, Q8NI35 (Q8NI35 1530-1615): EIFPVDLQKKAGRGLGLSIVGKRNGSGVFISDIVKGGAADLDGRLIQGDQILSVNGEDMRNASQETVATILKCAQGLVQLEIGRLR

HTRA3, P83110 = biological target: T4, HTRA3, P83110
DFNB31_1, Q9P202 = biological target: T5, DFNB31_1, Q9P202
RADIL, Q96JH8 = biological target: T6, RADIL, Q96JH8
APBA3_1, O96018 = biological target: T7, APBA3_1, O96018
MPP2, Q14168 = biological target: T8, MPP2, Q14168
PICK1, Q9NRD5 = biological target: PICK1, Q9NRD5
Chain of PICK1, Q9NRD5 (Q9NRD5 17-115): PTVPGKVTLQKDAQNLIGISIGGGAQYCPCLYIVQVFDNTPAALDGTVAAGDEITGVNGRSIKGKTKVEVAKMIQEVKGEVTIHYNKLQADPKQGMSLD

DFNB31_3, Q9P202 = biological target: T9, DFNB31_3, Q9P202
IL16_4, Q14005 = biological target: IL16_4, Q14005
Chain of IL16_4, Q14005 (Q14005 1229-1329): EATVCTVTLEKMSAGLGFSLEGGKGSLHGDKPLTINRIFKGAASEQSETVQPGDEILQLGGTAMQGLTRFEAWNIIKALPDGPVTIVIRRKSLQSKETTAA

PDZRN3_1, Q9UPQ7 = biological target: T10, PDZRN3_1, Q9UPQ7
LNX1_2, Q8TBB1 = biological target: LNX1_2, Q8TBB1
Chain of LNX1_2, Q8TBB1 (Q8TBB1 371-470): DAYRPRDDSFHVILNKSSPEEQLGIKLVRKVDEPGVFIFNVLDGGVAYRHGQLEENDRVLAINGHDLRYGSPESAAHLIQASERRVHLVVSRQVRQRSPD

IL16_3, Q14005 = biological target: IL16_3, Q14005
Chain of IL16_3, Q14005 (Q14005 1107-1207): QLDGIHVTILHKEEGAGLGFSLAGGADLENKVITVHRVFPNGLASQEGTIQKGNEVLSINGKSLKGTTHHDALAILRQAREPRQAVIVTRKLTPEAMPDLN

DLG5_1, Q8TDM6 = biological target: DLG5_1, Q8TDM6
Chain of DLG5_1, Q8TDM6 (Q8TDM6 617-713): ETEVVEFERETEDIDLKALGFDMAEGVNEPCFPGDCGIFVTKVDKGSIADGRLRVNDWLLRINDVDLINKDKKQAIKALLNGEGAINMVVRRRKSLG

TJP1_3, Q07157 = biological target: TJP1_3, Q07157
Chain of TJP1_3, Q07157 (Q07157 416-512): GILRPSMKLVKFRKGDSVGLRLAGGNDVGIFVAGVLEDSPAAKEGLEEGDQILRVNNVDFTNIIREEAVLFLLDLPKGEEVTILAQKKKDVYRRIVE

MAGI2_2, Q86UL8 = biological target: MAGI2_2, Q86UL8
Chain of MAGI2_2, Q86UL8 (Q86UL8 410-522): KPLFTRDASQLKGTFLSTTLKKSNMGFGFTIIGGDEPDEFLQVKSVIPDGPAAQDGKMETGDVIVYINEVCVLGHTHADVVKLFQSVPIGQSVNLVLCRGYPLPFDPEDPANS

GRID2IP_2, A4D2P6 = biological target: GRID2IP_2, A4D2P6
Chain of GRID2IP_2, A4D2P6 (A4D2P6 272-370): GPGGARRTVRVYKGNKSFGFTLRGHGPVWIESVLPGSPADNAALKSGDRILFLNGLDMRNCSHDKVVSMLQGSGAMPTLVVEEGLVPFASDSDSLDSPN

GRIP2_6, Q9C0E4 = biological target: GRIP2_6, Q9C0E4
Chain of GRIP2_6, Q9C0E4 (Q9C0E4 648-740): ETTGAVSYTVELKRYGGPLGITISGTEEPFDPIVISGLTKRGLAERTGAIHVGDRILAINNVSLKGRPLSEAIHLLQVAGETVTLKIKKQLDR

FRMPD3, Q5JV73 = biological target: FRMPD3, Q5JV73
Chain of FRMPD3, Q5JV73 (Q5JV73 12-100): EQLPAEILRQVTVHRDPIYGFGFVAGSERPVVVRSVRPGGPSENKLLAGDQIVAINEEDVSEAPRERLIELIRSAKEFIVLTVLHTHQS

TIAM2, Q8IVF5 = biological target: T11, TIAM2, Q8IVF5
NOS1, P29475 = biological target: NOS1, P29475
Chain of NOS1, P29475 (P29475 9-101): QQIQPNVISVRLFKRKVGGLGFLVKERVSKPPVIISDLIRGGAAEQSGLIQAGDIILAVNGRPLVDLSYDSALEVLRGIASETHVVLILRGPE

Binder	pKd (GRIP1_4, Q9Y3R0)	pKd (MPDZ_12, O75970)	pKd (GRASP, Q7Z6J2)	pKd (DLG3_2, Q92796)	pKd (GORASP2, Q9H8Y8)	pKd (GRIP2_4, Q9C0E4)	pKd (Inadl_9, Q8NI35)	pKd (HTRA3, P83110)	pKd (DFNB31_1, Q9P202)	pKd (RADIL, Q96JH8)	pKd (APBA3_1, O96018)	pKd (MPP2, Q14168)	pKd (PICK1, Q9NRD5)	pKd (DFNB31_3, Q9P202)	pKd (IL16_4, Q14005)	pKd (PDZRN3_1, Q9UPQ7)	pKd (LNX1_2, Q8TBB1)	pKd (IL16_3, Q14005)	pKd (DLG5_1, Q8TDM6)	pKd (TJP1_3, Q07157)	further results
TEEEVQDTRL [CFTR, P13569]	below the threshold	below the threshold	below the threshold	below the threshold	below the threshold	below the threshold	below the threshold	below the threshold	3.79	below the threshold	below the threshold	below the threshold	below the threshold	below the threshold	below the threshold	4.01	below the threshold	below the threshold	below the threshold	below the threshold	pKd (MAGI2_2, Q86UL8): below the threshold; pKd (GRID2IP_2, A4D2P6): below the threshold; pKd (GRIP2_6, Q9C0E4): below the threshold; pKd (FRMPD3, Q5JV73): below the threshold; pKd (TIAM2, Q8IVF5): below the threshold; pKd (NOS1, P29475): 3.53
NYWPGKETQL [SLCO1C1, Q9NYB5]	below the threshold	below the threshold	below the threshold	4.88	3.98	below the threshold	below the threshold	below the threshold	4.44	below the threshold	below the threshold	below the threshold	below the threshold	below the threshold	below the threshold	5.71	below the threshold	below the threshold	below the threshold	below the threshold	pKd (MAGI2_2, Q86UL8): 4.52; pKd (GRID2IP_2, A4D2P6): 4.29; pKd (GRIP2_6, Q9C0E4): below the threshold; pKd (FRMPD3, Q5JV73): below the threshold; pKd (TIAM2, Q8IVF5): below the threshold; pKd (NOS1, P29475): 4.41
